Data on 2 substances can be found in US11052053B2, “Nanoparticle comprising a bio-resorbable polyester, a hydrophilic polymer and an acylated human lactoferrin-derived peptide” (Evonik Operations GmbH, priority 2018, dated 2021).

Bridge positions count the residues as written; N and C are the ends. * marks the point of attachment. Palmitoyl = CCCCCCCCCCCCCCCC(=O)*

A short description of this data set: hLFF-peptide precipitation test (freeze-thawing). It counts as physicochemical. The following applies: 2 mM peptide in 50 mM Hepes buffer pH 8, freezing at −18° C. How it is done: hLFF-peptides tested for precipitation by one freeze-thawing cycle (freezing at −18° C.) with hLFF peptides dissolved in 50 mM Hepes buffer pH 8 at a concentration of 2 mM.
Solutions of acylated and biacylated human lactoferrin peptides were tested for precipitation in several freeze-thaw cycles.

“Acetyl-NH-KCFQWQRNMRKVRGPPVSCIKR-CONH2 (Ac-KCFQWQRNMRKVRGPPVSCIKR-NH2; disulfide 2-19; listed as Homo sapiens) [C2-hLFF]”: the “precipitation of peptide solution after freeze-thawing” value is “do not precipitate”.

Take “palmitoyl-NH-KCFQWQRNMRKVRGPPVSCIKR-CONH2 (Palmitoyl-KCFQWQRNMRKVRGPPVSCIKR-NH2; disulfide 2-19) [C16-hLFF]”: the “precipitation of peptide solution after freeze-thawing” value was “do not precipitate”.
